Results as given in patent US20140294898A1 (published 2014).
Positions of bridges follow the written chain, without caps; N, C: chain ends. Non-standard residues stand in square brackets, D forms with d. NMeNle = CCCC[C@H](NC)C(=O)O; αMeP = C[C@@]1(C(=O)O)CCCN1; NMeA = CN[C@@H](C)C(=O)O; dNMeA = CN[C@H](C)C(=O)O; Aze = O=C(O)[C@@H]1CCN1; Sar = CNCC(=O)O

Molecular target: T1, hPDL1(19-239)-TVMV-His (human, UniProt Q9NZQ7 19-239)
T1 construct: The text says amino acids 18-239, the construct name says 19-239; Expressed in HEK293T cells; Used at 10 nM final in the HTRF assay; also called PD-L1-His; PD-L1-TVMV-His
T1 sequence (Q9NZQ7 other isoform, or with tags, fused parts or gaps limits assumed): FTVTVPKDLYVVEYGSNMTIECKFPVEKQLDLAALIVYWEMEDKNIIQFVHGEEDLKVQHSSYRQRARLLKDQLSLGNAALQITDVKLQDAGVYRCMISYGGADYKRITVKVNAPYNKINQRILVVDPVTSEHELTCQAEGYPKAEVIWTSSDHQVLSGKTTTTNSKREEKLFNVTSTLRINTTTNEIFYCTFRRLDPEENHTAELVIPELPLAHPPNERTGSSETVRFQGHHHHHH
Assay: HTRF competition, PD-1-Ig binding to PD-L1-His
Method: All binding studies were performed in an HTRF assay buffer consisting of dPBS supplemented with 0.1% (w/v) bovine serum albumin and 0.05% (v/v) Tween-20. […] PD-L1 fusion proteins from either human, cynomologous macaques, or mouse were used. HTRF detection was achieved using europium crypate-labeled anti-Ig monoclonal antibody (1 nM final) and allophycocyanin (APC) labeled anti-His monoclonal antibody (20 nM final). Antibodies were diluted in HTRF detection buffer and 5 μl was dispensed on top of binding reaction. The reaction was allowed to equilibrate for 30 minutes and signal (665 nm/620 nm ratio) was obtained using an EnVision fluorometer. […]
HTRF Experiments were performed essentially as outlined supra. Variant macrocyclic peptides were created as outlined herein.

IC50	Binder
6500 nM	{CH2CO}-A[NMeA]NPHL[Sar]WSW[NMeNle][NMeNle]RCG-NH2 (thioether N-14; SMILES CCCC[C@H]1C(=O)N(C)[C@@H](CCCC)C(=O)N[C@@H](CCCNC(=N)N)C(=O)N[C@H](C(=O)NCC(N)=O)CSCC(=O)N[C@@H](C)C(=O)N(C)[C@@H](C)C(=O)N[C@@H](CC(N)=O)C(=O)N2CCC[C@H]2C(=O)N[C@@H](Cc2c[nH]cn2)C(=O)N[C@@H](CC(C)C)C(=O)N(C)CC(=O)N[C@@H](Cc2c[nH]c3ccccc23)C(=O)N[C@@H](CO)C(=O)N[C@@H](Cc2c[nH]c3ccccc23)C(=O)N1C) [Compound No. 5]
16 nM	{CH2CO}-F[NMeA]NPAL[Sar]WSW[NMeNle][NMeNle]RCG-NH2 (thioether N-14; SMILES CCCC[C@H]1C(=O)N(C)[C@@H](CCCC)C(=O)N[C@@H](CCCNC(=N)N)C(=O)N[C@H](C(=O)NCC(N)=O)CSCC(=O)N[C@@H](Cc2ccccc2)C(=O)N(C)[C@@H](C)C(=O)N[C@@H](CC(N)=O)C(=O)N2CCC[C@H]2C(=O)N[C@@H](C)C(=O)N[C@@H](CC(C)C)C(=O)N(C)CC(=O)N[C@@H](Cc2c[nH]c3ccccc23)C(=O)N[C@@H](CO)C(=O)N[C@@H](Cc2c[nH]c3ccccc23)C(=O)N1C) [Compound No. 10]
5 nM	{CH2CO}-Y[NMeA]NPHL[Sar]WSW[NMeNle][NMeNle]RCG-NH2 (thioether N-14; SMILES CCCC[C@H]1C(=O)N(C)[C@@H](CCCC)C(=O)N[C@@H](CCCNC(=N)N)C(=O)N[C@H](C(=O)NCC(N)=O)CSCC(=O)N[C@@H](Cc2ccc(O)cc2)C(=O)N(C)[C@@H](C)C(=O)N[C@@H](CC(N)=O)C(=O)N2CCC[C@H]2C(=O)N[C@@H](Cc2c[nH]cn2)C(=O)N[C@@H](CC(C)C)C(=O)N(C)CC(=O)N[C@@H](Cc2c[nH]c3ccccc23)C(=O)N[C@@H](CO)C(=O)N[C@@H](Cc2c[nH]c3ccccc23)C(=O)N1C) [Compound No. 30]
3 nM	{CH2CO}-F[NMeA]NPHL[Sar]WSW[NMeNle][NMeNle]ACG-NH2 (thioether N-14; SMILES CCCC[C@H]1C(=O)N(C)[C@@H](CCCC)C(=O)N[C@@H](C)C(=O)N[C@H](C(=O)NCC(N)=O)CSCC(=O)N[C@@H](Cc2ccccc2)C(=O)N(C)[C@@H](C)C(=O)N[C@@H](CC(N)=O)C(=O)N2CCC[C@H]2C(=O)N[C@@H](Cc2c[nH]cn2)C(=O)N[C@@H](CC(C)C)C(=O)N(C)CC(=O)N[C@@H](Cc2c[nH]c3ccccc23)C(=O)N[C@@H](CO)C(=O)N[C@@H](Cc2c[nH]c3ccccc23)C(=O)N1C) [Compound No. 22]
55 nM	{CH2CO}-F[Sar]NPHL[Sar]WSW[NMeNle][NMeNle]RCG-NH2 (thioether N-14; SMILES CCCC[C@H]1C(=O)N(C)[C@@H](CCCC)C(=O)N[C@@H](CCCNC(=N)N)C(=O)N[C@H](C(=O)NCC(N)=O)CSCC(=O)N[C@@H](Cc2ccccc2)C(=O)N(C)CC(=O)N[C@@H](CC(N)=O)C(=O)N2CCC[C@H]2C(=O)N[C@@H](Cc2c[nH]cn2)C(=O)N[C@@H](CC(C)C)C(=O)N(C)CC(=O)N[C@@H](Cc2c[nH]c3ccccc23)C(=O)N[C@@H](CO)C(=O)N[C@@H](Cc2c[nH]c3ccccc23)C(=O)N1C) [Compound No. 7]
31 nM	{CH2CO}-F[NMeA]APHL[Sar]WSW[NMeNle][NMeNle]RCG-NH2 (thioether N-14; SMILES CCCC[C@H]1C(=O)N(C)[C@@H](CCCC)C(=O)N[C@@H](CCCNC(=N)N)C(=O)N[C@H](C(=O)NCC(N)=O)CSCC(=O)N[C@@H](Cc2ccccc2)C(=O)N(C)[C@@H](C)C(=O)N[C@@H](C)C(=O)N2CCC[C@H]2C(=O)N[C@@H](Cc2c[nH]cn2)C(=O)N[C@@H](CC(C)C)C(=O)N(C)CC(=O)N[C@@H](Cc2c[nH]c3ccccc23)C(=O)N[C@@H](CO)C(=O)N[C@@H](Cc2c[nH]c3ccccc23)C(=O)N1C) [Compound No. 8]
5 nM	{CH2CO}-F[NMeA]NPHL[Sar]WAW[NMeNle][NMeNle]RCG-NH2 (thioether N-14; SMILES CCCC[C@H]1C(=O)N(C)[C@@H](CCCC)C(=O)N[C@@H](CCCNC(=N)N)C(=O)N[C@H](C(=O)NCC(N)=O)CSCC(=O)N[C@@H](Cc2ccccc2)C(=O)N(C)[C@@H](C)C(=O)N[C@@H](CC(N)=O)C(=O)N2CCC[C@H]2C(=O)N[C@@H](Cc2c[nH]cn2)C(=O)N[C@@H](CC(C)C)C(=O)N(C)CC(=O)N[C@@H](Cc2c[nH]c3ccccc23)C(=O)N[C@@H](C)C(=O)N[C@@H](Cc2c[nH]c3ccccc23)C(=O)N1C) [Compound No. 16]
16 nM	{CH2CO}-F[NMeA]NPHL[NMeA]WSW[NMeNle][NMeNle]RCG-NH2 (thioether N-14; SMILES CCCC[C@H]1C(=O)N(C)[C@@H](CCCC)C(=O)N[C@@H](CCCNC(=N)N)C(=O)N[C@H](C(=O)NCC(N)=O)CSCC(=O)N[C@@H](Cc2ccccc2)C(=O)N(C)[C@@H](C)C(=O)N[C@@H](CC(N)=O)C(=O)N2CCC[C@H]2C(=O)N[C@@H](Cc2c[nH]cn2)C(=O)N[C@@H](CC(C)C)C(=O)N(C)[C@@H](C)C(=O)N[C@@H](Cc2c[nH]c3ccccc23)C(=O)N[C@@H](CO)C(=O)N[C@@H](Cc2c[nH]c3ccccc23)C(=O)N1C) [Compound No. 13]
27 nM	{CH2CO}-W[NMeA]NPHL[Sar]WSW[NMeNle][NMeNle]RCG-NH2 (thioether N-14; SMILES CCCC[C@H]1C(=O)N(C)[C@@H](CCCC)C(=O)N[C@@H](CCCNC(=N)N)C(=O)N[C@H](C(=O)NCC(N)=O)CSCC(=O)N[C@@H](Cc2c[nH]c3ccccc23)C(=O)N(C)[C@@H](C)C(=O)N[C@@H](CC(N)=O)C(=O)N2CCC[C@H]2C(=O)N[C@@H](Cc2c[nH]cn2)C(=O)N[C@@H](CC(C)C)C(=O)N(C)CC(=O)N[C@@H](Cc2c[nH]c3ccccc23)C(=O)N[C@@H](CO)C(=O)N[C@@H](Cc2c[nH]c3ccccc23)C(=O)N1C) [Compound No. 25]
59 nM	{CH2CO}-F[NMeA]NPHL[dNMeA]WSW[NMeNle][NMeNle]RCG-NH2 (thioether N-14; SMILES CCCC[C@H]1C(=O)N(C)[C@@H](CCCC)C(=O)N[C@@H](CCCNC(=N)N)C(=O)N[C@H](C(=O)NCC(N)=O)CSCC(=O)N[C@@H](Cc2ccccc2)C(=O)N(C)[C@@H](C)C(=O)N[C@@H](CC(N)=O)C(=O)N2CCC[C@H]2C(=O)N[C@@H](Cc2c[nH]cn2)C(=O)N[C@@H](CC(C)C)C(=O)N(C)[C@H](C)C(=O)N[C@@H](Cc2c[nH]c3ccccc23)C(=O)N[C@@H](CO)C(=O)N[C@@H](Cc2c[nH]c3ccccc23)C(=O)N1C) [Compound No. 14]
31 nM	{CH2CO}-F[NMeA]NPHA[Sar]WSW[NMeNle][NMeNle]RCG-NH2 (thioether N-14; SMILES CCCC[C@H]1C(=O)N(C)[C@@H](CCCC)C(=O)N[C@@H](CCCNC(=N)N)C(=O)N[C@H](C(=O)NCC(N)=O)CSCC(=O)N[C@@H](Cc2ccccc2)C(=O)N(C)[C@@H](C)C(=O)N[C@@H](CC(N)=O)C(=O)N2CCC[C@H]2C(=O)N[C@@H](Cc2c[nH]cn2)C(=O)N[C@@H](C)C(=O)N(C)CC(=O)N[C@@H](Cc2c[nH]c3ccccc23)C(=O)N[C@@H](CO)C(=O)N[C@@H](Cc2c[nH]c3ccccc23)C(=O)N1C) [Compound No. 11]
7540 nM	{CH2CO}-F[NMeA]NPHL[Sar]WSA[NMeNle][NMeNle]RCG-NH2 (thioether N-14; SMILES CCCC[C@H]1C(=O)N(C)[C@@H](CCCC)C(=O)N[C@@H](CCCNC(=N)N)C(=O)N[C@H](C(=O)NCC(N)=O)CSCC(=O)N[C@@H](Cc2ccccc2)C(=O)N(C)[C@@H](C)C(=O)N[C@@H](CC(N)=O)C(=O)N2CCC[C@H]2C(=O)N[C@@H](Cc2c[nH]cn2)C(=O)N[C@@H](CC(C)C)C(=O)N(C)CC(=O)N[C@@H](Cc2c[nH]c3ccccc23)C(=O)N[C@@H](CO)C(=O)N[C@@H](C)C(=O)N1C) [Compound No. 17]
34 nM	{CH2CO}-F[NMeA]N[αMeP]HL[Sar]WSW[NMeNle][NMeNle]RCG-NH2 (thioether N-14; SMILES CCCC[C@H]1C(=O)N(C)[C@@H](CCCC)C(=O)N[C@@H](CCCNC(=N)N)C(=O)N[C@H](C(=O)NCC(N)=O)CSCC(=O)N[C@@H](Cc2ccccc2)C(=O)N(C)[C@@H](C)C(=O)N[C@@H](CC(N)=O)C(=O)N2CCC[C@@]2(C)C(=O)N[C@@H](Cc2c[nH]cn2)C(=O)N[C@@H](CC(C)C)C(=O)N(C)CC(=O)N[C@@H](Cc2c[nH]c3ccccc23)C(=O)N[C@@H](CO)C(=O)N[C@@H](Cc2c[nH]c3ccccc23)C(=O)N1C) [Compound No. 49]
71 nM	{CH2CO}-F[NMeA]N[Aze]HL[Sar]WSW[NMeNle][NMeNle]RCG-NH2 (thioether N-14; SMILES CCCC[C@H]1C(=O)N(C)[C@@H](CCCC)C(=O)N[C@@H](CCCNC(=N)N)C(=O)N[C@H](C(=O)NCC(N)=O)CSCC(=O)N[C@@H](Cc2ccccc2)C(=O)N(C)[C@@H](C)C(=O)N[C@@H](CC(N)=O)C(=O)N2CC[C@H]2C(=O)N[C@@H](Cc2c[nH]cn2)C(=O)N[C@@H](CC(C)C)C(=O)N(C)CC(=O)N[C@@H](Cc2c[nH]c3ccccc23)C(=O)N[C@@H](CO)C(=O)N[C@@H](Cc2c[nH]c3ccccc23)C(=O)N1C) [Compound No. 50]
